Biological target: T1, SAP-97 PDZ1-2-3 (human, UniProt Q12959 220-554)
T1 construct: human SAP-97, residues 220-554; Synthetic DNA in a modified pRSET vector; source: E. coli BL21(DE3)pLysS, purified (His-Trap IMAC, MonoQ ion exchange)
Assay: fluorescence polarisation; competition against the monomeric CRIPT probe; 50 mM TRIS, 100 mM NaCl, 1 mM EDTA, 1 mM DTT; Ki calculated according to Nikolovska-Coleska et al.
Conditions: both partners purified

T1 sequence (Q12959 220-554): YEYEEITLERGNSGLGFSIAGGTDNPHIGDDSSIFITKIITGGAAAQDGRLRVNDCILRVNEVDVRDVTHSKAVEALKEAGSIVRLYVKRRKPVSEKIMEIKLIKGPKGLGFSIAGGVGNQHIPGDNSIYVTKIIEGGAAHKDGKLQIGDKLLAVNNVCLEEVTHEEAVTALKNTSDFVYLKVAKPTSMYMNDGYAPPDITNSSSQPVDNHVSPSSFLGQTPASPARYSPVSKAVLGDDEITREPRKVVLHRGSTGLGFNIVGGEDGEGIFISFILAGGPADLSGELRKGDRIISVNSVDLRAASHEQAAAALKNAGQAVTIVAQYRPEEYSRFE

Ki: 1 µM
B1: CRIPT-06 (1) (peptide)
peptide: YKQTSV
notes: C-terminal hexapeptide of CRIPT; also called CRIPT hexapeptide; YKQTSV; source: synthetic peptide

Reference: publication PMC4319893 (PLoS ONE, 2015)
